Test results from patent US20160144003A1 (Scripps Research, published 2016).

What was measured:
[1] = biological target: the molecule itself; assay: sedimentation equilibrium AUC, monomer-dimer self-association
Description: FIGS. 8A-8F show sedimentation equilibrium analysis of WT and CMT-causing mutant human GlyRS proteins. Three cells containing different concentrations of each protein sample were centrifuged at 9000 rpm (solid curved line), 14000 rpm (mixed-dash curved line), and 19000 rpm (dash curved line). Absorbance data for each cell was collected at 280 nm and 230 nm wavelength. The meniscus (vertical dot-dash line) in each cell was set manually, while the bottom (vertical dash line) was allowed to float. Data within the fit limits (vertical solid lines) was globally fitted to the monomer-dimer self-association model in SEDPHAT. Data beyond approximately 1.5 absorbance was omitted in case of non-linearity of the detection instrumentation. The fits for the 9000, 14000, and 19000 rpm data are represented by the solid, mixed dash, and dash lines respectively.
WT and mutant GlyRSs were cloned and expressed as described (see Xie et al., Acta Crystallogr Sect F Struct Biol Cryst Commun 62:1243-1246, 2006), and purified to more than 99% homogeneity in three steps: nickel affinity, Mono Q and size exclusion chromatography. Sedimentation equilibrium experiments were performed in a Beckman Optima XL-1 analytical ultracentrifuge with integrated optical systems. All protein samples (0.5 μM, 1.25 μM, 2.5 μM) were prepared in DPBS buffer (2.67 mM potassium chloride, 1.47 mM potassium phosphate monobasic, 137.93 mM sodium chloride and 8.06 mM sodium phosphate dibasic, pH 7.2) and purified by size exclusion chromatography immediately prior to centrifugation. The buffer density and viscosity, and the protein partial specific volume were determined by SEDPHAT (see Lebowitz et al., Protein Sci. 11:2067-2079, 2002). Samples (180 μL) in two-channel cells were centrifuged in a Beckman An-60 Ti rotor at speeds of […] at 4° C. Equilibrium was reached after 36 hours for each speed and verified by comparison with a second scan taken every 6 hours. Data was collected at 280 nm and […]. Data sets consisting of 18 curves per protein (3 concentrations, 3 rotor speeds and 2 wavelengths each) were analyzed by global fitting to the monomer-dimer self-association model using the program SEDPHAT (Id.).

[2] = biological target: T1, GFP-neuropilin (NRP1) fusion protein on transfected cells; assay: cell counts of confocal images, N2a cells expressing GFP-NRP1 incubated with GlyRS
T1 construct: whole, on cells; also called GFP-NRP1; NRP1-EGFP
T1 sequence (O14786 22-923): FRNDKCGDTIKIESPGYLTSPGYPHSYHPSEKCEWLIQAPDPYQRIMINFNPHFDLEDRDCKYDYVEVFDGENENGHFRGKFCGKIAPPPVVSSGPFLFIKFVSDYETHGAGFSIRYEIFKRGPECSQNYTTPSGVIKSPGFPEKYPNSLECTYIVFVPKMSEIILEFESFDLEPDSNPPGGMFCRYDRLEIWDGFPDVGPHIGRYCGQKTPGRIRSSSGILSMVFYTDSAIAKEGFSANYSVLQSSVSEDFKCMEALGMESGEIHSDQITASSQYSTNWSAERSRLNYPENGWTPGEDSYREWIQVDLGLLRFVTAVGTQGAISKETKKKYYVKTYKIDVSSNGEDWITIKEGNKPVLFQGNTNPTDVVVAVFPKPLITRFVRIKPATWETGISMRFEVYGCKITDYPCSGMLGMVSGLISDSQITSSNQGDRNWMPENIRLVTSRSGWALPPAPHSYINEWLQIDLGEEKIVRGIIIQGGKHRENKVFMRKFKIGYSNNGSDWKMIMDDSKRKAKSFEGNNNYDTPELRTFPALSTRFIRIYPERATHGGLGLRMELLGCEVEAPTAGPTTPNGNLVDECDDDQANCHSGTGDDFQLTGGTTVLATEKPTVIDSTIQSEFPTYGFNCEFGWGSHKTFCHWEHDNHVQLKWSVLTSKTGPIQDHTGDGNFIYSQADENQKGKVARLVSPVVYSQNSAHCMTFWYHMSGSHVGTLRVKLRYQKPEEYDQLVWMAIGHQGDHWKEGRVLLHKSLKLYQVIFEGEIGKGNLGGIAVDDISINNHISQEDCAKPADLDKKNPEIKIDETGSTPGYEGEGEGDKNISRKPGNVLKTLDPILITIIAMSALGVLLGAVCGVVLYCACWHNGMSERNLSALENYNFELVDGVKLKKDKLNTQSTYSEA
Description: Confocal microscopy analysis was performed to assess the influence of GlyRS and CMT-associated GlyRS mutants on neuropilin-mediated neurite outgrowth. Mouse neuroblastoma N2a cells were transfected with either control pEGFP or NRP1-EGFP. After 24 hours, the cells were plated onto Fibronectin coated coverslips. Then N2a cells were then incubated with or without 200 nM wild-type GlyRS or CMT-associated GlyRS mutants (L129P, G240R, G526R) at 4° C. for 1 hour. Cells were then washed three times with DPBS buffer and fixed with 4% formaldehyde. The coverslips were mounted with Prolong Gold Antifade Reagent with DAPI (invitrogen) at 25° C. for overnight. Images were then taken using the Bio-Rad (Zeiss) Radiance 2100 Rainbow laser scanning confocal microscope (LSCM).

B1: wild-type human glycyl-tRNA synthetase (GlyRS) (enzyme)
chain: MDGAGAEEVLAPLRLAVRQQGDLVRKLKEDKAPQVDVDKAVAELKARKRVLEAKELALQPKDDIVDRAKMEDTLKRRFFYDQAFAIYGGVSGLYDFGPVGCALKNNIIQTWRQHFIQEEQILEIDCTMLTPEPVLKTSGHVDKFADFMVKDVKNGECFRADHLLKAHLQKLMSDKKCSVEKKSEMESVLAQLDNYGQQELADLFVNYNVKSPITGNDLSPPVSFNLMFKTFIGPGGNMPGYLRPETAQGIFLNFKRLLEFNQGKLPFAAAQIGNSFRNEISPRSGLIRVREFTMAEIEHFVDPSEKDHPKFQNVADLHLYLYSAKAQVSGQSARKMRLGDAVEQGVINNTVLGYFIGRIYLYLTKVGISPDKLRFRQHMENEMAHYACDCWDAESKTSYGWIEIVGCADRSCYDLSCHARATKVPLVAEKPLKEPKTVNVVQFEPSKGAIGKAYKKDAKLVMEYLAICDECYITEMEMLLNEKGEFTIETEGKTFQLTKDMINVKRFQKTLYVEEVVPNVIEPSFGLGRIMYTVFEHTFHVREGDEQRTFFSFPAVVAPFKCSVLPLSQNQEFMPFVKELSEALTRHGVSHKVDDSSGSIGRRYARTDEIGVAFGVTIDFDTVNKTPHTATLRDRDSMRQIRAEISELPSIVQDLANGNITWADVEARYPLFEGQETGKKETIEE
notes: Used as a GlyRS-His fusion protein in the neuropilin assays; also called WT GlyRS; WT; not shown: His tag
With B1 as the binder, how does the Kd [1] read?
The Kd was 560 nM.

What about the Cell number % [2] of the same binder?
Its Cell number % is 8.6%.

B2: human GlyRS L129P mutant (enzyme)
chain: MDGAGAEEVLAPLRLAVRQQGDLVRKLKEDKAPQVDVDKAVAELKARKRVLEAKELALQPKDDIVDRAKMEDTLKRRFFYDQAFAIYGGVSGLYDFGPVGCALKNNIIQTWRQHFIQEEQILEIDCTMPTPEPVLKTSGHVDKFADFMVKDVKNGECFRADHLLKAHLQKLMSDKKCSVEKKSEMESVLAQLDNYGQQELADLFVNYNVKSPITGNDLSPPVSFNLMFKTFIGPGGNMPGYLRPETAQGIFLNFKRLLEFNQGKLPFAAAQIGNSFRNEISPRSGLIRVREFTMAEIEHFVDPSEKDHPKFQNVADLHLYLYSAKAQVSGQSARKMRLGDAVEQGVINNTVLGYFIGRIYLYLTKVGISPDKLRFRQHMENEMAHYACDCWDAESKTSYGWIEIVGCADRSCYDLSCHARATKVPLVAEKPLKEPKTVNVVQFEPSKGAIGKAYKKDAKLVMEYLAICDECYITEMEMLLNEKGEFTIETEGKTFQLTKDMINVKRFQKTLYVEEVVPNVIEPSFGLGRIMYTVFEHTFHVREGDEQRTFFSFPAVVAPFKCSVLPLSQNQEFMPFVKELSEALTRHGVSHKVDDSSGSIGRRYARTDEIGVAFGVTIDFDTVNKTPHTATLRDRDSMRQIRAEISELPSIVQDLANGNITWADVEARYPLFEGQETGKKETIEE
notes: also called L129P GlyRS; L129P-His; not shown: His tag
What does the source list for B2?
Kd [1]: 41000 nM; fold increase in Kd of dimerization relative to WT GlyRS [1]: 73 fold; Cell number % [2]: 37.7%

B3: human GlyRS G240R mutant (enzyme)
chain: MDGAGAEEVLAPLRLAVRQQGDLVRKLKEDKAPQVDVDKAVAELKARKRVLEAKELALQPKDDIVDRAKMEDTLKRRFFYDQAFAIYGGVSGLYDFGPVGCALKNNIIQTWRQHFIQEEQILEIDCTMLTPEPVLKTSGHVDKFADFMVKDVKNGECFRADHLLKAHLQKLMSDKKCSVEKKSEMESVLAQLDNYGQQELADLFVNYNVKSPITGNDLSPPVSFNLMFKTFIGPGGNMPRYLRPETAQGIFLNFKRLLEFNQGKLPFAAAQIGNSFRNEISPRSGLIRVREFTMAEIEHFVDPSEKDHPKFQNVADLHLYLYSAKAQVSGQSARKMRLGDAVEQGVINNTVLGYFIGRIYLYLTKVGISPDKLRFRQHMENEMAHYACDCWDAESKTSYGWIEIVGCADRSCYDLSCHARATKVPLVAEKPLKEPKTVNVVQFEPSKGAIGKAYKKDAKLVMEYLAICDECYITEMEMLLNEKGEFTIETEGKTFQLTKDMINVKRFQKTLYVEEVVPNVIEPSFGLGRIMYTVFEHTFHVREGDEQRTFFSFPAVVAPFKCSVLPLSQNQEFMPFVKELSEALTRHGVSHKVDDSSGSIGRRYARTDEIGVAFGVTIDFDTVNKTPHTATLRDRDSMRQIRAEISELPSIVQDLANGNITWADVEARYPLFEGQETGKKETIEE
notes: GlyRS-His fusion protein in the pull-down and cell assays; also called G240R GlyRS; not shown: His tag
How did the Kd [1] turn out when B3 was run?
The Kd was 11000 nM.

What about the “fold increase in Kd of dimerization relative to WT GlyRS” value [1] of the same binder?
Its value is 20 fold.

And the Cell number % [2]?
Its Cell number % is 42%.

B4: human GlyRS G526R mutant (enzyme)
chain: MDGAGAEEVLAPLRLAVRQQGDLVRKLKEDKAPQVDVDKAVAELKARKRVLEAKELALQPKDDIVDRAKMEDTLKRRFFYDQAFAIYGGVSGLYDFGPVGCALKNNIIQTWRQHFIQEEQILEIDCTMLTPEPVLKTSGHVDKFADFMVKDVKNGECFRADHLLKAHLQKLMSDKKCSVEKKSEMESVLAQLDNYGQQELADLFVNYNVKSPITGNDLSPPVSFNLMFKTFIGPGGNMPGYLRPETAQGIFLNFKRLLEFNQGKLPFAAAQIGNSFRNEISPRSGLIRVREFTMAEIEHFVDPSEKDHPKFQNVADLHLYLYSAKAQVSGQSARKMRLGDAVEQGVINNTVLGYFIGRIYLYLTKVGISPDKLRFRQHMENEMAHYACDCWDAESKTSYGWIEIVGCADRSCYDLSCHARATKVPLVAEKPLKEPKTVNVVQFEPSKGAIGKAYKKDAKLVMEYLAICDECYITEMEMLLNEKGEFTIETEGKTFQLTKDMINVKRFQKTLYVEEVVPNVIEPSFRLGRIMYTVFEHTFHVREGDEQRTFFSFPAVVAPFKCSVLPLSQNQEFMPFVKELSEALTRHGVSHKVDDSSGSIGRRYARTDEIGVAFGVTIDFDTVNKTPHTATLRDRDSMRQIRAEISELPSIVQDLANGNITWADVEARYPLFEGQETGKKETIEE
notes: GlyRS-His fusion protein in the pull-down assay; also called G526R GlyRS; not shown: His tag
How did the “fold decrease in Kd of dimerization relative to WT GlyRS” value [1] turn out when B4 was run?
The value was 3 to 4 fold.

And the Cell number % [2]?
The Cell number % was 20.7%.

B5: human GlyRS S581L mutant (enzyme)
chain: MDGAGAEEVLAPLRLAVRQQGDLVRKLKEDKAPQVDVDKAVAELKARKRVLEAKELALQPKDDIVDRAKMEDTLKRRFFYDQAFAIYGGVSGLYDFGPVGCALKNNIIQTWRQHFIQEEQILEIDCTMLTPEPVLKTSGHVDKFADFMVKDVKNGECFRADHLLKAHLQKLMSDKKCSVEKKSEMESVLAQLDNYGQQELADLFVNYNVKSPITGNDLSPPVSFNLMFKTFIGPGGNMPGYLRPETAQGIFLNFKRLLEFNQGKLPFAAAQIGNSFRNEISPRSGLIRVREFTMAEIEHFVDPSEKDHPKFQNVADLHLYLYSAKAQVSGQSARKMRLGDAVEQGVINNTVLGYFIGRIYLYLTKVGISPDKLRFRQHMENEMAHYACDCWDAESKTSYGWIEIVGCADRSCYDLSCHARATKVPLVAEKPLKEPKTVNVVQFEPSKGAIGKAYKKDAKLVMEYLAICDECYITEMEMLLNEKGEFTIETEGKTFQLTKDMINVKRFQKTLYVEEVVPNVIEPSFGLGRIMYTVFEHTFHVREGDEQRTFFSFPAVVAPFKCSVLPLSQNQEFMPFVKELLEALTRHGVSHKVDDSSGSIGRRYARTDEIGVAFGVTIDFDTVNKTPHTATLRDRDSMRQIRAEISELPSIVQDLANGNITWADVEARYPLFEGQETGKKETIEE
notes: also called S581L GlyRS; not shown: His tag
For B5, which Kd [1] is on record?
Its Kd is 190 nM.

What about the “fold decrease in Kd of dimerization relative to WT GlyRS” value [1] of the same binder?
Its value is 3 to 4 fold.

B6: human GlyRS G598A mutant (enzyme)
chain: MDGAGAEEVLAPLRLAVRQQGDLVRKLKEDKAPQVDVDKAVAELKARKRVLEAKELALQPKDDIVDRAKMEDTLKRRFFYDQAFAIYGGVSGLYDFGPVGCALKNNIIQTWRQHFIQEEQILEIDCTMLTPEPVLKTSGHVDKFADFMVKDVKNGECFRADHLLKAHLQKLMSDKKCSVEKKSEMESVLAQLDNYGQQELADLFVNYNVKSPITGNDLSPPVSFNLMFKTFIGPGGNMPGYLRPETAQGIFLNFKRLLEFNQGKLPFAAAQIGNSFRNEISPRSGLIRVREFTMAEIEHFVDPSEKDHPKFQNVADLHLYLYSAKAQVSGQSARKMRLGDAVEQGVINNTVLGYFIGRIYLYLTKVGISPDKLRFRQHMENEMAHYACDCWDAESKTSYGWIEIVGCADRSCYDLSCHARATKVPLVAEKPLKEPKTVNVVQFEPSKGAIGKAYKKDAKLVMEYLAICDECYITEMEMLLNEKGEFTIETEGKTFQLTKDMINVKRFQKTLYVEEVVPNVIEPSFGLGRIMYTVFEHTFHVREGDEQRTFFSFPAVVAPFKCSVLPLSQNQEFMPFVKELSEALTRHGVSHKVDDSSASIGRRYARTDEIGVAFGVTIDFDTVNKTPHTATLRDRDSMRQIRAEISELPSIVQDLANGNITWADVEARYPLFEGQETGKKETIEE
notes: Only in the dimerization measurement (sedimentation equilibrium); also called G598A GlyRS; not shown: the tag is not described
Which Kd [1] does the source give for B6 here?
Its Kd is 390 nM.
